Measurements as given in paper PMC8177486.
Substitutions are numbered along the chain they refer to. Names and notes keep the numbering of the source.

B1: Nrf2_(34–100) E82A (domain or fragment)
chain: REVFDFSQRRKEYELEKQKKLEKERQEQLQKEQEKAFFAQLQLDEETGAFLPIQPAQHIQSETSGSA
B2: Nrf2_(34–100) E78A (domain or fragment)
chain: B1 chain with E45A, A49E
B3: Nrf2_(34–100) wild type (domain or fragment)
chain: B1 chain with A49E
B4: Nrf2_(34–100) D77A (domain or fragment)
chain: B1 chain with D44A, A49E
B5: Nrf2_(34–100) T80S (domain or fragment)
chain: B1 chain with T47S, A49E
B6: Nrf2_(34–100) E79A (domain or fragment)
chain: B1 chain with E46A, A49E
B7: Nrf2_(34–100) T80A (domain or fragment)
chain: B1 chain with T47A, A49E
B8: Nrf2_(34–100) F83A (domain or fragment)
chain: B1 chain with A49E, F50A
B9: Nrf2_(1–100) (domain or fragment)
chain: MMDLELPPPGLPSQQDMDLIDILWRQDIDLGVSREVFDFSQRRKEYELEKQKKLEKERQEQLQKEQEKAFFAQLQLDEETGEFLPIQPAQHIQSETSGSA

target: KEAP1_(312–624), human KEAP1 Kelch repeat domain (human) (UniProt Q14145); assay: fluorescence polarisation

Binder	Kd [nM]	KD ratio to wild type (KD^T80S/KD^WT)
B1	22000	–
B2	25	–
B3	10	–
B4	4400	–
B5	–	30
B6	1700	–
B7	26000	–
B8	18	–
B9	10	–
